In patent US20050287542, “Protein binding miniature proteins” (published 2005) one finds binding signal data, which are given here for 2 molecules.

Series [1] deals with T1, G56 (GCN4 bZIP element) (UniProt P03069 P03069:226-281). The series can be described thus: EMSA. As to conditions: chain copies: 2 inferred; label: 32P. A general note: A gel shift assay detects complexes by their altered migration in electrophoresis.
In series [2] the target is T1, G56 (GCN4 bZIP element). In words: EMSA; ddG -2.6 kcal/mol. As to conditions: chain copies: 2 inferred; label: 32P.

T1 sequence (P03069 226-281, one chain of several): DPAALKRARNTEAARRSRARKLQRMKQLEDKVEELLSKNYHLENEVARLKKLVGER

B1: CRE24 (dsDNA)
DNA 1: AGTGGAGATGACGTCATCTCGTGC
DNA 2: GCACGAGATGACGTCATCTCCACT
As for B1, the binding signal in the series with G56 (GCN4 bZIP element) [1] was 118 fold preference over CEBP24.

B2: CEBP24 (C/EBP24) (dsDNA)
DNA 1: AGTGGAGATTGCGCAATCTCGTGC
DNA 2: GCACGAGATTGCGCAATCTCCACT
Consider B2, for which the binding signal in the series with G56 (GCN4 bZIP element) [2] is 118 fold specificity ratio for CRE24 over CEBP24.
